Reference: patent US20030166567

What was measured:
[1] = test system: 10-mer (SEQ ID NO:13) cleavage domain peptide
[2] = test system: 19-mer (SEQ ID NO:11) cleavage domain peptide
[3] = test system: 9-mer (SEQ ID NO:12) cleavage domain peptide

Active MMP-9 enzyme, sequence (chain, as listed by the source): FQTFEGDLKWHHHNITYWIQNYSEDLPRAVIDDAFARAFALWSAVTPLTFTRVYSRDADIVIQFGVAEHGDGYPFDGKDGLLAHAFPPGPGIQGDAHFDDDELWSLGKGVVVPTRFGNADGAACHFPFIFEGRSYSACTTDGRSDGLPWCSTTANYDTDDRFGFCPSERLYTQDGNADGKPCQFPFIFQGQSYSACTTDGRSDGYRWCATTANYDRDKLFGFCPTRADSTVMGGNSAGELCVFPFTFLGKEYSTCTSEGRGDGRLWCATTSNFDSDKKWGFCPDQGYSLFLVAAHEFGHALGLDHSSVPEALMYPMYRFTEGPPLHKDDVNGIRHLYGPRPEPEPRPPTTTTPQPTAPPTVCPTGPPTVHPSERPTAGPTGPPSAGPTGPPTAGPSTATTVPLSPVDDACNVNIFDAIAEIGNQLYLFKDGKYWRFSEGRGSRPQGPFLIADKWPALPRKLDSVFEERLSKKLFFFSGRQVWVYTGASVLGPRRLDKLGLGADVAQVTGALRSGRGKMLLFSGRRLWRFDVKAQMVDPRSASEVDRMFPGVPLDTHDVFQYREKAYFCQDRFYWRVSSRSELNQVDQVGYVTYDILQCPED

Substance: Active MMP-9 enzyme
- extended time course of MMP-9 catalyzed hydrolysis of collagen [1]: The 10-mer (SEQ ID NO:13) peptide is less effective at preventing the destruction of collagen at long time points (FIG. 9) than is the 9-mer (SEQ ID NO:12) peptide (FIG. 10)
- extended time course of MMP-9 catalyzed hydrolysis of collagen [2]: the 19-mer (SEQ ID NO:11) effectively inhibits the MMP-9 catalyzed hydrolysis of collagen to beyond 1000 minutes
- extended time course of MMP-9 catalyzed hydrolysis of collagen [3]: The 10-mer (SEQ ID NO:13) peptide is less effective at preventing the destruction of collagen at long time points (FIG. 9) than is the 9-mer (SEQ ID NO:12) peptide (FIG. 10)
